In paper PMC314469, “Protein Interaction Networks by Proteome Peptide Scanning” (PLoS Biology, 2004):

T1: amphyphisin SH3 (AMPH_HUMAN), P49418
T1 chain: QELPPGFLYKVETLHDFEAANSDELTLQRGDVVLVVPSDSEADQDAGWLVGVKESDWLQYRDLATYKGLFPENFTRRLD


Assays:
[1] = molecular target: endophilin SH3 (SH3G2_HUMAN), Q99962; experiment: SPOT array
[2] = molecular target: T1, amphyphisin SH3 (AMPH_HUMAN), P49418; experiment: SPOT array

normalised SPOT signal, Boehringer light units (BLU); mean over the file's lines of this peptide [1] | normalised SPOT signal, Boehringer light units (BLU); mean over the file's lines of this peptide [2] | Binder
123 | 103 | RKPELERPIKVNLA [Q01650 421-434]
10500 | 17100 | RLGPPKRPPRKLGP [O15235 37-51]
34.9 | 37.2 | RLPELKRPSGDQVQ [Q07075 143-156]
658 | 4460 | RLIAISRPLRYVTV [P58180 122-135]
9580 | 4180 | AVAPPARPPRPPYP [AAH27972 515-529]

More lines, now with the values behind:

Binder | normalised SPOT signal, Boehringer light units (BLU); mean over the file's lines of this peptide [1] | normalised SPOT signal, Boehringer light units (BLU); mean over the file's lines of this peptide [2]
RLAGPPRPPGHPRE [Q9BQU6 64-78] | 2700 | 162
AAAVPRRPTQQGTV [Q96SQ5 2-15] | 182 | 38.9
RLIAPRRPWTLSHV [Q96M18 45-58] | 2240 | 1130
RLHRLRRPHSSSDA [Q9NT23 226-239] | 9.6 | 12.5
RLFSIVRPRRLLYM [Q9UL53 87-100] | 702 | 1390
RLAALKRPDDVPLS [Q9UFC0 277-290] | 49.2 | 38
RLKTLRRPRVRDRL [Q9NRC6 2111-2124] | 32.1 | 35.2
RLLPPQRPGKSQRV [Q9UJS3 337-350] | 25000 | 2730
RKWYPLRPKKINLD [Q9NRN8 254-267] | 204 | 177
RLNWLGRPSKVLSL [O00407 179-192] | 270 | 213
RLRHLRRPRVARLL [Q9H1C0 128-141] | 24.3 | 15.2
RKPKPERPPSSSSS [Q9BW08 289-303] | 7630 | 66.8
